# From paper PMC4038756 (Theranostics, 2014)
# Legend:
# Type in all cases: in vivo, NOD/SCID mice
# H460 (αvβ6^-) xenografts = experiment: Small animal PET/CT imaging, H460 tumor bearing mice; settings: H460 tumor bearing mice, quantitative PET, mean ± s.d., n = 3
# [1] = as above; settings: NOD/SCID, mouse, iv, total radioactivity
# [2] = Small animal PET/CT imaging, H2009 tumor bearing mice; settings: NOD/SCID, mouse, iv, total radioactivity
# [3] = tested on: H2009 (αvβ6^+) xenografts; experiment: as above; settings: for Tumor uptake: quantitative PET, mean ± s.d.; for Tumor uptake / Tumor/Lung: n = 3; for Tumor/Lung: ratio of PET uptakes
# [4] = H2009 tumor bearing mice, 1 h p.i.
# [5] = H2009 tumor bearing mice, 4 h p.i.
# [6] = H2009 tumor bearing mice, 24 h p.i.
smiles,measurement,setting,value
"CC(C)C[C@H](NC(=O)[C@H](CCC(N)=O)NC(=O)[C@H](CCCNC(=N)N)NC(=O)[C@H](CC(C)C)NC(=O)[C@@H](NC(=O)[C@H](C)NC(=O)[C@H](CC(C)C)NC(=O)[C@H](CC(=O)O)NC(=O)CNC(=O)[C@@H](N)CCCNC(=N)N)[C@@H](C)O)C(=O)NCCOCCOCCOCCOCCOCCOCCOCCOCCOCCOCCOCCOCCC(=O)N[C@@H](CSC1CC(=O)N(CCNC(=O)CCC(C(=O)O)N2CCCN3CCN(CCCN(C(CCC(=O)NCCN4C(=O)CC(SC[C@H](NC(=O)CCOCCOCCOCCOCCOCCOCCOCCOCCOCCOCCOCCOCCNC(=O)[C@H](CC(C)C)NC(=O)[C@H](CCC(N)=O)NC(=O)[C@H](CCCNC(=N)N)NC(=O)[C@H](CC(C)C)NC(=O)[C@@H](NC(=O)[C@H](C)NC(=O)[C@H](CC(C)C)NC(=O)[C@H](CC(=O)O)NC(=O)CNC(=O)[C@@H](N)CCCNC(=N)N)[C@@H](C)O)C(N)=O)C4=O)C(=O)O)CC3)CC2)C1=O)C(N)=O (some centres unmarked) [^64Cu-(M10)2, metal not drawn]",Tumor uptake,H460 (αvβ6^-) xenografts; 1 h p.i.,0.71 ± 0.05 %ID/g
same,Tumor uptake,H460 (αvβ6^-) xenografts; 4 h p.i.,0.83 ± 0.04 %ID/g
same,Tumor uptake,H460 (αvβ6^-) xenografts; 24 h p.i.,0.53 ± 0.17 %ID/g
same,tissue uptake at 1 h,[1]; heart,1.7 %ID/g
same,tissue uptake at 4 h,[1]; heart,1.25 ± 0.07 %ID/g
same,tissue uptake at 24 h,[1]; heart,0.83 ± 0.17 %ID/g
same,tissue uptake at 1 h,[1]; kidney,85.4 ± 17.5 %ID/g
same,tissue uptake at 4 h,[1]; kidney,92.9 ± 11.3 %ID/g
same,tissue uptake at 24 h,[1]; kidney,68.9 ± 8.13 %ID/g
same,tissue uptake at 1 h,[1]; liver,5.45 ± 0.49 %ID/g
same,tissue uptake at 4 h,[1]; liver,4.8 ± 0.14 %ID/g
same,tissue uptake at 24 h,[1]; liver,3.25 ± 0.21 %ID/g
same,tissue uptake at 1 h,[1]; lung,1.5 ± 0.14 %ID/g
same,tissue uptake at 4 h,[1]; lung,1.15 ± 0.07 %ID/g
same,tissue uptake at 24 h,[1]; lung,0.77 ± 0.01 %ID/g
same,tissue uptake at 1 h,[1]; muscle,0.45 ± 0.18 %ID/g
same,tissue uptake at 4 h,[1]; muscle,0.31 ± 0.06 %ID/g
same,tissue uptake at 24 h,[1]; muscle,0.38 ± 0.08 %ID/g
same,tissue uptake at 1 h,[2]; heart,1.56 ± 0.15 %ID/g
same,tissue uptake at 4 h,[2]; heart,0.71 ± 0.03 %ID/g
same,tissue uptake at 24 h,[2]; heart,0.32 ± 0.03 %ID/g
same,tissue uptake at 1 h,[2]; kidney,53.6 ± 8.68 %ID/g
same,tissue uptake at 4 h,[2]; kidney,46.2 ± 10.4 %ID/g
same,tissue uptake at 24 h,[2]; kidney,27.3 ± 7.3 %ID/g
same,tissue uptake at 1 h,[2]; liver,2.13 ± 0.73 %ID/g
same,tissue uptake at 4 h,[2]; liver,1.9 %ID/g
same,tissue uptake at 24 h,[2]; liver,1.26 ± 0.25 %ID/g
same,tissue uptake at 1 h,[2]; lung,1.66 ± 0.15 %ID/g
same,tissue uptake at 4 h,[2]; lung,0.72 ± 0.02 %ID/g
same,tissue uptake at 24 h,[2]; lung,0.4 ± 0.03 %ID/g
same,tissue uptake at 1 h,[2]; muscle,0.87 ± 0.04 %ID/g
same,tissue uptake at 4 h,[2]; muscle,0.3 ± 0.02 %ID/g
same,tissue uptake at 24 h,[2]; muscle,0.25 ± 0.05 %ID/g
same,increase of kidney uptake as compared to 64Cu-M10,"[3]; H2009 tumor bearing mice, 1 h, 4 h, 24 h p.i.",~6 fold
same,Tumor uptake,[3]; [4],1.6 ± 0.20 %ID/g
same,Tumor/Lung,[3]; [4],1.0 ± 0.25
same,Tumor uptake,[3]; [5],0.85 ± 0.19 %ID/g
same,Tumor/Lung,[3]; [5],1.2 ± 0.19
same,Tumor uptake,[3]; [6],0.79 ± 0.03 %ID/g
same,Tumor/Lung,[3]; [6],1.9 ± 0.04
same,tumor uptake increase as compared to 64Cu-M10,"[3]; H2009 tumor, all three time points (1 h, 4 h, 24 h p.i.)",~3 fold
"CC(C)C[C@H](NC(=O)[C@H](CCC(N)=O)NC(=O)[C@H](CCCNC(=N)N)NC(=O)[C@H](CC(C)C)NC(=O)[C@@H](NC(=O)[C@H](C)NC(=O)[C@H](CC(C)C)NC(=O)[C@H](CC(=O)O)NC(=O)CNC(=O)[C@@H](N)CCCNC(=N)N)[C@@H](C)O)C(=O)NCCOCCOCCOCCOCCOCCOCCOCCOCCOCCOCCOCCOCCC(=O)N[C@@H](CSC1CC(=O)N(CCNC(=O)CCC(C(=O)O)N2CCCN3CCN(CCCN(CC(=O)O)CC3)CC2)C1=O)C(N)=O (some centres unmarked) [^64Cu-M10, metal not drawn]",Tumor uptake,H460 (αvβ6^-) xenografts; 1 h p.i.,0.34 ± 0.05 %ID/g
same,Tumor uptake,H460 (αvβ6^-) xenografts; 4 h p.i.,0.24 ± 0.01 %ID/g
same,Tumor uptake,H460 (αvβ6^-) xenografts; 24 h p.i.,0.19 ± 0.01 %ID/g
same,tissue uptake at 1 h,[1]; heart,1.02 ± 0.17 %ID/g
same,tissue uptake at 4 h,[1]; heart,0.65 ± 0.12 %ID/g
same,tissue uptake at 24 h,[1]; heart,0.33 ± 0.03 %ID/g
same,tissue uptake at 1 h,[1]; kidney,14 ± 2.4 %ID/g
same,tissue uptake at 4 h,[1]; kidney,12.5 ± 2.33 %ID/g
same,tissue uptake at 24 h,[1]; kidney,5.97 ± 1.01 %ID/g
same,tissue uptake at 1 h,[1]; liver,0.93 ± 0.12 %ID/g
same,tissue uptake at 4 h,[1]; liver,0.77 ± 0.06 %ID/g
same,tissue uptake at 24 h,[1]; liver,0.43 ± 0.05 %ID/g
same,tissue uptake at 1 h,[1]; lung,0.55 ± 0.09 %ID/g
same,tissue uptake at 4 h,[1]; lung,0.34 ± 0.07 %ID/g
same,tissue uptake at 24 h,[1]; lung,0.18 ± 0.02 %ID/g
same,tissue uptake at 1 h,[1]; muscle,0.15 ± 0.07 %ID/g
same,tissue uptake at 4 h,[1]; muscle,0.11 ± 0.04 %ID/g
same,tissue uptake at 24 h,[1]; muscle,0.1 ± 0.03 %ID/g
same,tissue uptake at 1 h,[2]; heart,1.02 ± 0.07 %ID/g
same,tissue uptake at 4 h,[2]; heart,0.42 ± 0.06 %ID/g
same,tissue uptake at 24 h,[2]; heart,0.16 ± 0.05 %ID/g
same,tissue uptake at 1 h,[2]; kidney,6.83 ± 0.35 %ID/g
same,tissue uptake at 4 h,[2]; kidney,6.23 ± 0.32 %ID/g
same,tissue uptake at 24 h,[2]; kidney,3.5 ± 0.36 %ID/g
same,tissue uptake at 1 h,[2]; liver,2.03 ± 0.23 %ID/g
same,tissue uptake at 4 h,[2]; liver,1.53 ± 0.21 %ID/g
same,tissue uptake at 24 h,[2]; liver,1.3 ± 0.1 %ID/g
same,tissue uptake at 1 h,[2]; lung,0.66 ± 0.08 %ID/g
same,tissue uptake at 4 h,[2]; lung,0.33 ± 0.11 %ID/g
same,tissue uptake at 24 h,[2]; lung,0.15 ± 0.04 %ID/g
same,tissue uptake at 1 h,[2]; muscle,0.3 ± 0.02 %ID/g
same,tissue uptake at 4 h,[2]; muscle,0.12 ± 0.02 %ID/g
same,tissue uptake at 24 h,[2]; muscle,0.14 ± 0.02 %ID/g
same,Tumor uptake,[3]; [4],0.55 ± 0.17 %ID/g
same,Tumor/Lung,[3]; [4],0.83 ± 0.18
same,Tumor uptake,[3]; [5],0.33 ± 0.11 %ID/g
same,Tumor/Lung,[3]; [5],1.0 ± 0.15
same,Tumor uptake,[3]; [6],0.28 ± 0.11 %ID/g
same,Tumor/Lung,[3]; [6],1.86 ± 0.11
